Reference: patent US20240392004A1 (IMMUNOWAKE, published 2024)

T1: IFN-γ receptor (IFNGR1 and IFNGR2) (UniProt P15260 18-489; P38484 22-337, limits assumed)
T1 sequence (looked up) 1: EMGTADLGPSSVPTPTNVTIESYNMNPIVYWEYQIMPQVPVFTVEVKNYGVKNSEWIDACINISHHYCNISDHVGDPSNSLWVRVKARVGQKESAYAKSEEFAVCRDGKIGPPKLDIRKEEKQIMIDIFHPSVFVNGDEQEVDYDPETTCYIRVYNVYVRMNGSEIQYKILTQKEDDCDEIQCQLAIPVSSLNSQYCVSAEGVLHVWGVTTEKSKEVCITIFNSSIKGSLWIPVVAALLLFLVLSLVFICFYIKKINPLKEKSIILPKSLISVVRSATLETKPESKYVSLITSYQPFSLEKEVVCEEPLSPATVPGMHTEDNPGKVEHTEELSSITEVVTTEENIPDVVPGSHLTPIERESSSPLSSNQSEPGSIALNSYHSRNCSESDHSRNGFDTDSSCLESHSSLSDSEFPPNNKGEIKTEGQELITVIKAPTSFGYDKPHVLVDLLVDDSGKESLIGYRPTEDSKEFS
T1 sequence (looked up) 2: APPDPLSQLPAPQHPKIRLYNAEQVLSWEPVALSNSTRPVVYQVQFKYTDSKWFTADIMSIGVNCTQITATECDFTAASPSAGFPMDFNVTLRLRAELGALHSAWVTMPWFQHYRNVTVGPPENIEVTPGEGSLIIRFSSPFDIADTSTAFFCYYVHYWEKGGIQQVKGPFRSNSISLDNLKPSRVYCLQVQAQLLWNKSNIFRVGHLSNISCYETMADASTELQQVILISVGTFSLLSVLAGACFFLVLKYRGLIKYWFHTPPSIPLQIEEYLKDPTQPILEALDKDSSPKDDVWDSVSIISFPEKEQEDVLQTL


How the values were obtained:
Assay in all cases: cell-based or functional assay
[1] = molecular target: human IL-12 receptor complex (IL-12Rβ1 and IL-12Rβ2) (human, UniProt P42701 24-662; Q99665 24-862)
[2] = molecular target: human PD-1 on cells (HEK-PD-1 reporter cells; activated PBMC) (human, UniProt Q15116 25-288)
[3] = molecular target: T1, IFN-γ receptor (IFNGR1 and IFNGR2)

Sequence of human PD-1 on cells (HEK-PD-1 reporter cells; activated PBMC) (Q15116 25-288): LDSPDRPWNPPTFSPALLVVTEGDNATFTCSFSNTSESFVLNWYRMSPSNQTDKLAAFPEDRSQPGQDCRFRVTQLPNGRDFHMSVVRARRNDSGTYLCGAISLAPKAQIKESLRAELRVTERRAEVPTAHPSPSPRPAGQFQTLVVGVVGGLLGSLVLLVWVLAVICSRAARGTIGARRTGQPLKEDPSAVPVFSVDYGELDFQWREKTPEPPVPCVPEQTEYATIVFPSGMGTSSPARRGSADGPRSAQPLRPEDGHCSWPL
Sequence of human IL-12 receptor complex (IL-12Rβ1 and IL-12Rβ2) (Q99665 24-862, chain 2 of 2, other chains not shown): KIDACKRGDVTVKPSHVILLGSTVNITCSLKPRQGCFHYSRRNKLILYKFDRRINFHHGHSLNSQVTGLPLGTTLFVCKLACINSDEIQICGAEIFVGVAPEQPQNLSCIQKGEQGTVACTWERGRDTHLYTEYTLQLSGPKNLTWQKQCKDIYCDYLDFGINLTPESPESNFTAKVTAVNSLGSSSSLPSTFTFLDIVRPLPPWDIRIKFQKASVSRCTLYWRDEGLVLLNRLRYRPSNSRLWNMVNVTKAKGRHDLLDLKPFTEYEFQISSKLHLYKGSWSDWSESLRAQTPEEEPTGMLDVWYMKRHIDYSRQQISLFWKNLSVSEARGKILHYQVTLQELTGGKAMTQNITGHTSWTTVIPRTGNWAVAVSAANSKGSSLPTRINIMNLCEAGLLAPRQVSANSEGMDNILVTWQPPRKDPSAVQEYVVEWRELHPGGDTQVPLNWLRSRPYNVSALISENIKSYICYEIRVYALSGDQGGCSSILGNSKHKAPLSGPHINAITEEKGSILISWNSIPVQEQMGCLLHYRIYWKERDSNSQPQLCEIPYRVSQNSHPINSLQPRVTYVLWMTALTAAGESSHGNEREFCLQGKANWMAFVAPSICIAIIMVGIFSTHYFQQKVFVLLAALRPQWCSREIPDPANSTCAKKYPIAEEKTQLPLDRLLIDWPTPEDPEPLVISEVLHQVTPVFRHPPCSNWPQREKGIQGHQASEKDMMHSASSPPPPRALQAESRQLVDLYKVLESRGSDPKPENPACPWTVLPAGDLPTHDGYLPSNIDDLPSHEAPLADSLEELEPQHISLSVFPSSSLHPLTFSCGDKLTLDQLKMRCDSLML

Row | IL-12 signal transduction, HEK-IL-12 [1] | IFN-γ signal transduction, HEK-IFN-γ-PD-1 [2] | IL-12 signal transduction, HEK-IL-12-PD-1 [2] | IFN-γ signal transduction, HEK-IFN-γ [3] | Binder
1 | < 0.2% | 44% | < 0.2% | < 0.1% | IFN-γ(A23V/A23V)/PD-L1(mut2)-Fc (Fc fusion) chain 1: FTVTVPKDLYVVEYGSNMTIECKFPVEKQLDLAALQVYWMMEDKNIIQFVHGEEDLKVQHSSYRQRARLLKDQLSLGNAALQITDVKLQDAGVYTCLIAYKGADYKRITVKVNAPYNKINQRILVVDPVTSEHELTCQAEGYPKAEVIWTSSDHQVLSGKTTTTNSKREEKLFNVTSTLRINTTTNEIFYCTFRRLDPEENHTAELVIPELPLAHPPNERGGGGSGGGDKTHTCPPCPAPEDEGGPSVFLFPPKPKDTLMISRTPEVTCVVVDVSHEDPEVKFNWYVDGVEVHNAKTKPREEQYNSTYRVVSVLTVLHQDWLNGKEYKCKVSNKALPAPIEKTISKAKGQPREPQVYVYPPSREEMTKNQVSLTCLVKGFYPSDIAVEWESNGQPENNYKTTPPVLDEDGSFALVSKLTVDKSRWQQGNVFSCSVMHEALHNHYTQKSLSLSPGK chain 2: FTVTVPKDLYVVEYGSNMTIECKFPVEKQLDLAALQVYWMMEDKNIIQFVHGEEDLKVQHSSYRQRARLLKDQLSLGNAALQITDVKLQDAGVYTCLIAYKGADYKRITVKVNAPYNKINQRILVVDPVTSEHELTCQAEGYPKAEVIWTSSDHQVLSGKTTTTNSKREEKLFNVTSTLRINTTTNEIFYCTFRRLDPEENHTAELVIPELPLAHPPNERGGGSGQDPYVKEAENLKKYFNAGHSDVVDNGTLFLGILKNWKEESDRKIMQSQIVSFYFKLFKNFKDDQSIQKSVETIKEDMNVKFFNSNKKKRDDFEKLTNYSVTDLNVQRKAIHELIQVMAELSPAAKTGKRKRSQMLFRGGGGSGGGGSGGGGSGGGGSQDPYVKEAENLKKYFNAGHSDVVDNGTLFLGILKNWKEESDRKIMQSQIVSFYFKLFKNFKDDQSIQKSVETIKEDMNVKFFNSNKKKRDDFEKLTNYSVTDLNVQRKAIHELIQVMAELSPAAKTGKRKRSQMLFRGGGGGSGGGDKTHTCPPCPAPEKKGGPSVFLFPPKPKDTLMISRTPEVTCVVVDVSHEDPEVKFNWYVDGVEVHNAKTKPREEQYNSTYRVVSVLTVLHQDWLNGKEYKCKVSNKALPAPIEKTISKAKGQPREPQVYVLPPSREEMTKNQVSLLCLVKGFYPSDIAVEWESNGQPENRYMTWPPVLDSDGSFFLYSKLTVDKSRWQQGNVFSCSVMHEALHNHYTQKSLSLSPGK
2 | < 0.2% | 39% | 32% | < 0.1% | IL-12(E59A/F60A)/IFN-γ(A23V/A23V)/PD-L1(mut2)-Fc (Fc fusion) chain 1: FTVTVPKDLYVVEYGSNMTIECKFPVEKQLDLAALQVYWMMEDKNIIQFVHGEEDLKVQHSSYRQRARLLKDQLSLGNAALQITDVKLQDAGVYTCLIAYKGADYKRITVKVNAPYNKINQRILVVDPVTSEHELTCQAEGYPKAEVIWTSSDHQVLSGKTTTTNSKREEKLFNVTSTLRINTTTNEIFYCTFRRLDPEENHTAELVIPELPLAHPPNERGGGGSGGGIWELKKDVYVVELDWYPDAPGEMVVLTCDTPEEDGITWTLDQSSEVLGSGKTLTIQVKAAGDAGQYTCHKGGEVLSHSLLLLHKKEDGIWSTDILKDQKEPKNKTFLRCEAKNYSGRFTCWWLTTISTDLTFSVKSSRGSSDPQGVTCGAATLSAERVRGDNKEYEYSVECQEDSACPAAEESLPIEVMVDAVHKLKYENYTSSFFIRDIIKPDPPKNLQLKPLKNSRQVEVSWEYPDTWSTPHSYFSLTFCVQVQGKSKREKKDRVFTDKTSATVICRKNASISVRAQDRYYSSSWSEWASVPCSGGGGSGGGSGGGGSRNLPVATPDPGMFPCLHHSQNLLRAVSNMLQKARQTLEFYPCTSEEIDHEDITKDKTSTVEACLPLELTKNESCLNSRETSFITNGSCLASRKTSFMMALCLSSIYEDLKMYQVEFKTMNAKLLMDPKRQIFLDQNMLAVIDELMQALNFNSETVPQKSSLEEPDFYKTKIKLCILLHAFRIRAVTIDRVMSYLNASGGGGSGGGDKTHTCPPCPAPEDEGGPSVFLFPPKPKDTLMISRTPEVTCVVVDVSHEDPEVKFNWYVDGVEVHNAKTKPREEQYNSTYRVVSVLTVLHQDWLNGKEYKCKVSNKALPAPIEKTISKAKGQPREPQVYVYPPSREEMTKNQVSLTCLVKGFYPSDIAVEWESNGQPENNYKTTPPVLDEDGSFALVSKLTVDKSRWQQGNVFSCSVMHEALHNHYTQKSLSLSPGK chain 2: FTVTVPKDLYVVEYGSNMTIECKFPVEKQLDLAALQVYWMMEDKNIIQFVHGEEDLKVQHSSYRQRARLLKDQLSLGNAALQITDVKLQDAGVYTCLIAYKGADYKRITVKVNAPYNKINQRILVVDPVTSEHELTCQAEGYPKAEVIWTSSDHQVLSGKTTTTNSKREEKLFNVTSTLRINTTTNEIFYCTFRRLDPEENHTAELVIPELPLAHPPNERGGGSGQDPYVKEAENLKKYFNAGHSDVVDNGTLFLGILKNWKEESDRKIMQSQIVSFYFKLFKNFKDDQSIQKSVETIKEDMNVKFFNSNKKKRDDFEKLTNYSVTDLNVQRKAIHELIQVMAELSPAAKTGKRKRSQMLFRGGGGSGGGGSGGGGSGGGGSQDPYVKEAENLKKYFNAGHSDVVDNGTLFLGILKNWKEESDRKIMQSQIVSFYFKLFKNFKDDQSIQKSVETIKEDMNVKFFNSNKKKRDDFEKLTNYSVTDLNVQRKAIHELIQVMAELSPAAKTGKRKRSQMLFRGGGGGSGGGDKTHTCPPCPAPEKKGGPSVFLFPPKPKDTLMISRTPEVTCVVVDVSHEDPEVKFNWYVDGVEVHNAKTKPREEQYNSTYRVVSVLTVLHQDWLNGKEYKCKVSNKALPAPIEKTISKAKGQPREPQVYVLPPSREEMTKNQVSLLCLVKGFYPSDIAVEWESNGQPENRYMTWPPVLDSDGSFFLYSKLTVDKSRWQQGNVFSCSVMHEALHNHYTQKSLSLSPGK
3 | < 0.2% | 45% | 43% | < 0.1% | IL-12(E59A/F60A)/IFN-γ(A23V/A23V)/PD-L1(mut7)-Fc (Fc fusion) chain 1: FTVTVPKDLYVVEYGSNMTIECKFPVEKQLDLAALQVYWMMEDKNIIQFVHGEEDLKVQHSSYRQRARLLKDQLSLGNAALQITDVKLQDAGVYTCLIAYGGADYKRITVKVNAPYNKINQRILVVDPVTSEHELTCQAEGYPKAEVIWTSSDHQVLSGKTTTTNSKREEKLFNVTSTLRINTTTNEIFYCTFRRLDPEENHTAELVIPELPLAHPPNERGGGGSGGGIWELKKDVYVVELDWYPDAPGEMVVLTCDTPEEDGITWTLDQSSEVLGSGKTLTIQVKAAGDAGQYTCHKGGEVLSHSLLLLHKKEDGIWSTDILKDQKEPKNKTFLRCEAKNYSGRFTCWWLTTISTDLTFSVKSSRGSSDPQGVTCGAATLSAERVRGDNKEYEYSVECQEDSACPAAEESLPIEVMVDAVHKLKYENYTSSFFIRDIIKPDPPKNLQLKPLKNSRQVEVSWEYPDTWSTPHSYFSLTFCVQVQGKSKREKKDRVFTDKTSATVICRKNASISVRAQDRYYSSSWSEWASVPCSGGGGSGGGSGGGGSRNLPVATPDPGMFPCLHHSQNLLRAVSNMLQKARQTLEFYPCTSEEIDHEDITKDKTSTVEACLPLELTKNESCLNSRETSFITNGSCLASRKTSFMMALCLSSIYEDLKMYQVEFKTMNAKLLMDPKRQIFLDQNMLAVIDELMQALNFNSETVPQKSSLEEPDFYKTKIKLCILLHAFRIRAVTIDRVMSYLNASGGGGSGGGDKTHTCPPCPAPEDEGGPSVFLFPPKPKDTLMISRTPEVTCVVVDVSHEDPEVKFNWYVDGVEVHNAKTKPREEQYNSTYRVVSVLTVLHQDWLNGKEYKCKVSNKALPAPIEKTISKAKGQPREPQVYVYPPSREEMTKNQVSLTCLVKGFYPSDIAVEWESNGQPENNYKTTPPVLDEDGSFALVSKLTVDKSRWQQGNVFSCSVMHEALHNHYTQKSLSLSPGK chain 2: FTVTVPKDLYVVEYGSNMTIECKFPVEKQLDLAALQVYWMMEDKNIIQFVHGEEDLKVQHSSYRQRARLLKDQLSLGNAALQITDVKLQDAGVYTCLIAYGGADYKRITVKVNAPYNKINQRILVVDPVTSEHELTCQAEGYPKAEVIWTSSDHQVLSGKTTTTNSKREEKLFNVTSTLRINTTTNEIFYCTFRRLDPEENHTAELVIPELPLAHPPNERGGGSGQDPYVKEAENLKKYFNAGHSDVVDNGTLFLGILKNWKEESDRKIMQSQIVSFYFKLFKNFKDDQSIQKSVETIKEDMNVKFFNSNKKKRDDFEKLTNYSVTDLNVQRKAIHELIQVMAELSPAAKTGKRKRSQMLFRGGGGSGGGGSGGGGSGGGGSQDPYVKEAENLKKYFNAGHSDVVDNGTLFLGILKNWKEESDRKIMQSQIVSFYFKLFKNFKDDQSIQKSVETIKEDMNVKFFNSNKKKRDDFEKLTNYSVTDLNVQRKAIHELIQVMAELSPAAKTGKRKRSQMLFRGGGGGSGGGDKTHTCPPCPAPEKKGGPSVFLFPPKPKDTLMISRTPEVTCVVVDVSHEDPEVKFNWYVDGVEVHNAKTKPREEQYNSTYRVVSVLTVLHQDWLNGKEYKCKVSNKALPAPIEKTISKAKGQPREPQVYVLPPSREEMTKNQVSLLCLVKGFYPSDIAVEWESNGQPENRYMTWPPVLDSDGSFFLYSKLTVDKSRWQQGNVFSCSVMHEALHNHYTQKSLSLSPGK
